± gives the standard deviation of the averaged measurements.
B1: library; numbered along this chain (parent)
chain: MNIQIGELAKRTACPVVTIRFYEQEGLLPPPGRSRGNFRLYGEEHVERLQFIRHCRSLDMPLSDVRTLLSYRKRPDQDCGEVNMLLDEHIRQVESRIGALLELKHHLVELREACSGARPAQSCGILQGLSDCVCDTRGTTAHPSD

How the values were obtained:
[1] = variants of: B1; test: sfGFP reporter fluorescence (15 h) (µM FITC); higher = higher leak; details: library round: Round 1; ligand: none
Method: (§1)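 Cell-free biosensing: 1 µL Echo-assembled CFE reactions with linear PbrR variant templates (5 nM) and pPbrR-sfGFP reporter, with 1 µM Pb, 30 µM Zn or no ligand; endpoint sfGFP fluorescence after 15 h at 30 °C calibrated as µM FITC. Round 1 ML-predicted PbrR mutants; 3 biological replicates.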

[2] = variants of: B1; test: sfGFP reporter fluorescence (15 h) (µM FITC); higher = stronger transcriptional activation; details: library round: Round 1
Method: as §1

Variant	sfGFP reporter fluorescence [1]	sfGFP reporter fluorescence ([2]; ligand: 1 µM Pb)	sfGFP reporter fluorescence ([2]; ligand: 30 µM Zn)
MNIQIGELAKRTACPVVTIRFYEQEGLLPPPGRSRGNFRLYGEEHVERLQFIRHCRSLDMPLSDVRTLLSYRKRPDQDCGEVTMLLDEHIRQVESRIGALLELKHHLVELRFACSGARPAQSCGILQGLSDCVCDTRGTTAHPSD [N83T E112F]	0.0601 ± 0.0026	0.0667 ± 0.0032	0.0853 ± 0.0022
MNIQIGELAKRTACPVVTIRFYEQEGLLPPPGRSRGNFRLYGEEHVERLQFIRHCRSLDMPLSDVRTLLSYRKRPDQDCGEVTMLLDEHIRQVESRIGALLELKHHLVELRAACSGARPAQSCGILQGLSDCVCDTRGTTAHPSD [N83T E112A]	0.0608 ± 0.0013	0.0855 ± 0.0018	0.194 ± 0.022
MNIQIGELAKRTACPVVTIRFYEQEGLLPPPGRSRGNFRLYGEEHVERLQFIRHCRSLDMPLSDVRTLLSYRKRPDQDCGEVTMLLDEHIRQVESRIGALLELKHHLVELRHACSGARPAQSCGILQGLSDCVCDTRGTTAHPSD [N83T E112H]	0.0643 ± 0.0027	0.0795 ± 0.0037	0.112 ± 0.0026
MNIQIGELAKRTACPVVTIRFYEQEGLLPPPGRSRGNFRLYGEEHVERLQFIRHCRSLDMPLSDVRTLLSYRKRPDQDCGEVTMLLDEHIRQVESRIGALLELKHHLVELREACSGARPAQSCGILQGLSDCVCPTRGTTAHPSD [N83T D135P]	0.0602 ± 0.0037	0.0771 ± 0.00092	0.106 ± 0.0033
MNIQIGELAKRTACPVVTIRFYEQEGLLPPPGRSRGNFRLYGEEHVERLQFIRHCRSLDMPLSDVRTLLSYRKRPDQDCGEVTMLLDEHIRQVESRIGALLELKHHLVELREACSGARPAQSCGILQGLSDCVCVTRGTTAHPSD [N83T D135V]	0.0628 ± 0.0024	0.0727 ± 0.0031	0.184 ± 0.011
MNIQIGELAKRTACPVVTIRFYEQEGLLPPPGRSRGNFRLYGEEHVERLQFIRHCRSLDMPLSDVRTLLSYRKRPDQDCGEVTMLLDEHIRQVESRIGALLELKHHLVELREACSGARPAQSCGILQGLSDCVCFTRGTTAHPSD [N83T D135F]	0.0665 ± 0.00076	0.0911 ± 0.014	0.435 ± 0.062
MNIQIGELAKRTACPVVTIRFYEQEGLLPPPGRSRGNFRLYGEEHVERLQFIRHCRSLDMPLSDVRTLLSYRKRPDQDCGEVTMLLDEHIRQVESRIGALLELKHHLVELREACSGARPAQSCGILQGLSDCVCATRGTTAHPSD [N83T D135A]	0.06316 ± 0.00056	0.0768 ± 0.0015	0.152 ± 0.0032
MNIQIGELAKRTACPVVTIRFYEQEGLLPPPGRSRGNFRLYGEEHVERLQFIRHCRSLDMPLSDVRTLLSYRKRPDQDCGEVTMLLDEHIRQVESRIGALLELKHHLVFLREACSGARPAQSCGILQGLSDCVCDTRGTTAHPSD [N83T E109F]	0.0638 ± 0.0013	0.0862 ± 0.0036	0.315 ± 0.0065
MNIQIGELAKRTACPVVTIRFYEQEGLLPPPGRSRGNFRLYGEEHVERLQFIRHCRSLDMPLSDVRTLLSYRKRPDQDCGEVTMLLDEHIRQVRSRIGALLELKHHLVELREACSGARPAQSCGILQGLSDCVCDTRGTTAHPSD [N83T E94R]	0.0643 ± 0.0013	0.0792 ± 0.002	0.128 ± 0.0019
MNIQIGELAKRTACPVVTIRFYEQEGLLPPPGRSRGNFRLYGEEHVERLQFIRHCRSLDMPLSDVRTLLSYRKRPDQDCGEVTMLLDEHIRQVESRIGALLELKHHLVELREACSGARPAQSCGILQGLSSCVCDTRGTTAHYSD [N83T D131S P143Y]	0.0614 ± 0.0015	0.0782 ± 0.0092	0.144 ± 0.014
MNIQIGELAKRTACPVVTIRFYEQEGLLPPPGRSRGNFRLYGEEHVERLQFIRHCRSLDMPLSDVRTLLSYRKRPDQDCGEVTMLLDEHIRQVESRIGALLELKHHLVLLREACSGARPAQSCGILQGLSDCVCDTRGTTAHRSD [N83T E109L P143R]	0.0641 ± 0.00073	0.0812 ± 0.0015	0.183 ± 0.0048
MNIQIGELAKRTACPVVTIRFYEQEGLLPPPGRSRGNFRLYGEEHVERLQFIRHCRSLDMPLSDVRTLLSYRKRPDQDCGEVTMLLDEHIRQVESRIGALLELKHHLVALREACSGARPAQSCGILQGLSDCVCDTRGTTAHYSD [N83T E109A P143Y]	0.0646 ± 0.0022	0.0776 ± 0.0092	0.179 ± 0.017
MNIQIGELAKRTACPVVTIRFYEQEGLLPPPGRSRGNFRLYGEEHVERLQFIRHCRSLDMPLSDVRTLLSYRKRPDQDCGEVTMLLDEHIRQVESRIGALLELKHHLVELREACSGARPAQSCGILQGLSDCVCVTRGTTAHASD [N83T D135V P143A]	0.0633 ± 0.0021	0.0745 ± 0.0035	0.189 ± 0.0083
MNIQIGELAKRTACPVVTIRFYEQEGLLPPPGRSRGNFRLYGEEHVERLQFIRHCRSLDMPLSDVRTLLSYRKRPDQDCGEVTMLLDEHIRQVESRIGALLELKHHLVELREACSGARPAQSCGILQGLSDCVCATRGTTAHASD [N83T D135A P143A]	0.0625 ± 0.002	0.0748 ± 0.0033	0.162 ± 0.0078
